In article PMC12730105, “The Interaction Between PGD2 and G6PD6 Is Involved in Aromatic Amino Acid Synthesis” (Biology, 2025):

Target: T1, MBP-G6PD6 (pMAL-c5x) (Arabidopsis thaliana, UniProt Q9FJI5 1-515)
T1 construct: glucose-6-phosphate dehydrogenase 6 (G6PD6), Arabidopsis thaliana, At5g40760, full-length ORF in pMAL-c5x; pMAL-c5x normally places MBP at the N-terminus; source: E. coli BL21 (DE3), purified (amylose resin)
T1 sequence (looked up): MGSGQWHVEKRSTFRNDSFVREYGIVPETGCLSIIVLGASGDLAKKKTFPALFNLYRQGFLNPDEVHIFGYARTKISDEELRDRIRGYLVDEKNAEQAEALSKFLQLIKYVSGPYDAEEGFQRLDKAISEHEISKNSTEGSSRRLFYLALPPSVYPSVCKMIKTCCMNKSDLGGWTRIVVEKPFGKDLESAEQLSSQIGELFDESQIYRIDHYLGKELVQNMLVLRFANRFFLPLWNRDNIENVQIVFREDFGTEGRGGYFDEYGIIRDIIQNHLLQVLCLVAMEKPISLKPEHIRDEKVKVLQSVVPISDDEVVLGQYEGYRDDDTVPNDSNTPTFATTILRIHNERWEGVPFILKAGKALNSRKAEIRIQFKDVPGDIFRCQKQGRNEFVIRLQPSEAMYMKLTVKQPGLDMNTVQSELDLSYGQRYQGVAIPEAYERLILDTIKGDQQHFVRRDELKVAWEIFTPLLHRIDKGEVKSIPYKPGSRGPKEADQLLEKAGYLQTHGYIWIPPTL
Assay: pull-down; purified PGD2-HIS immobilised on Mag-Beads His-Tag resin (4 °C, 1 h), incubated with MBP-G6PD6 at 4 °C for 3 h, three washes, Western blot (the results speak of immobilised MBP-G6PD6)
Details: both partners purified

binding result: binds
B1: PGD2-HIS (pET28a-PGD2) (enzyme, Arabidopsis thaliana, UniProt Q9FWA3 1-486, looked up)
chain: MAVQPTRIGLAGLAVMGQNLALNIAEKGFPISVYNRTTSKVDETVERAKKEGNLPLYGFHDPESFVKSIQKPRVIIMLVKAGSPVDQTIKTLSAYLEKGDCIVDGGNEWYENTERREKAVAENGFLYLGMGVSGGEEGARNGPSMMPGGSYEAYKNIEDIVLKVAAQVRDSGPCVTYIGKGGSGNFVKMVHNGIEYGDMQLIAEAYDVLKSVGKLSNEELHSVFSDWNKGELESFLVEITADIFGIKDDKGDGHLVDKVLDKTGMKGTGKWTVQQAAELSVPAPTIESSLDARFLSGLKDERVQAAKVFKAGGFGDILTDQKVDKKQLVDDVRKALYASKICSYAQGMNLIRAKSIEKGWGLKLGELARIWKGGCIIRAIFLDRIKQAYDRNAELANLLVDPEFAKEIIERQSAWRRVVCLAINSGISTPGMSASLAYFDSYRRERLPANLVQAQRDYFGAHTYERTDVEGSFHTEWFKIARQSKI
notes: Printed as PGD2-HIS in the methods and HIS-PGD2 in the results; also called HIS-PGD2; source: E. coli BL21 (DE3), purified (His60 Ni Superflow resin)
